The results in this text go back to CN114591431A (MEISWEI SHANGHAI BIOTECHNOLOGY CO LTD, dated 2022).

In assay [1] the target is T1, 重组人GAS6 his 蛋白(Novoprotein，Cat#C01W) (human, UniProt Q14393 31-678, limits assumed).
T1 construct: Bought protein; not shown: His tag
T1 sequence (looked up): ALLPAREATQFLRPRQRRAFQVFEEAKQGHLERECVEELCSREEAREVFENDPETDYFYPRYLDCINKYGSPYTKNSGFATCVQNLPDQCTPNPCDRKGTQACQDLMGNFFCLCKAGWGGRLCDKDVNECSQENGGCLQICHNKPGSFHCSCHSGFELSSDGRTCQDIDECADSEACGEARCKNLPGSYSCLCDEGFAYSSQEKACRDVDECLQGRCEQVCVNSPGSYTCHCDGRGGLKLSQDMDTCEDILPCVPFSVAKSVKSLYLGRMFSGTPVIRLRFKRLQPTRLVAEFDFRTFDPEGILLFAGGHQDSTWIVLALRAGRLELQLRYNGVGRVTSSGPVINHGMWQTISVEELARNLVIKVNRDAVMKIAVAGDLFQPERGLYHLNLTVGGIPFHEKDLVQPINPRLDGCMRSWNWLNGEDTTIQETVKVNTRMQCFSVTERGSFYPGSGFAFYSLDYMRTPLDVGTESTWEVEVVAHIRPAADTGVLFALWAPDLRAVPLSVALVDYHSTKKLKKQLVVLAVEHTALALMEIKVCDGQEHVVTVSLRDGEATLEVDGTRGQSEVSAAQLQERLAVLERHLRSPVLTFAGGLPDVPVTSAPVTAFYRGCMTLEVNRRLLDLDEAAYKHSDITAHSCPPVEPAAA
The assay can be described thus: ELISA, coated human GAS6 his 0.5 ug/ml. In general terms: In an ELISA, binding on a coated surface is turned into a signal by an enzyme label.

The assay “鼠GAS6 his蛋白(Sino …)” has as its target T2, 鼠GAS6 his蛋白(Sino Biological，Cat#58026-M08H) (mouse, UniProt Q61592 28-674).
T2 construct: Bought protein; also called 小鼠 GAS6; not shown: His tag
T2 sequence (looked up): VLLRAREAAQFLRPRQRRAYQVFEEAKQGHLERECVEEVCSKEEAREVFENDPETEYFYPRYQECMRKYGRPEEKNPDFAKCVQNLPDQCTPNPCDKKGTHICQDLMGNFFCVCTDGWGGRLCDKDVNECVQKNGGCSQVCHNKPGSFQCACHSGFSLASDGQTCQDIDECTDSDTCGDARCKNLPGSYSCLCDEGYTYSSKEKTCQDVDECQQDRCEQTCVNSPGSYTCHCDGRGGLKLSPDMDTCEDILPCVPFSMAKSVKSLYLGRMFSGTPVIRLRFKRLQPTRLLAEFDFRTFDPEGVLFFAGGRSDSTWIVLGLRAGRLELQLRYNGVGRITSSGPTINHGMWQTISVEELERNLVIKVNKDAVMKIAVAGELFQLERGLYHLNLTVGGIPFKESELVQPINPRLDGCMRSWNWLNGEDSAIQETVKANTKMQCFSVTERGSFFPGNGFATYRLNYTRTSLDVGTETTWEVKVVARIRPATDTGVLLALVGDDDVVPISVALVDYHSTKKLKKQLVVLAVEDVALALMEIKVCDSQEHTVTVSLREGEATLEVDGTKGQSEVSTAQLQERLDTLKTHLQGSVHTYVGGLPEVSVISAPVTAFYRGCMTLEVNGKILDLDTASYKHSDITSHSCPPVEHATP
In words: ELISA, coated mouse GAS6 his 0.5 ug/ml.

Assay [2] has as its target T3, 重组人Protein S his 蛋白(R&D，Cat# 9489-PS) (human, UniProt P07225 42-676, limits assumed).
T3 construct: Bought protein; not shown: His tag
T3 sequence (looked up): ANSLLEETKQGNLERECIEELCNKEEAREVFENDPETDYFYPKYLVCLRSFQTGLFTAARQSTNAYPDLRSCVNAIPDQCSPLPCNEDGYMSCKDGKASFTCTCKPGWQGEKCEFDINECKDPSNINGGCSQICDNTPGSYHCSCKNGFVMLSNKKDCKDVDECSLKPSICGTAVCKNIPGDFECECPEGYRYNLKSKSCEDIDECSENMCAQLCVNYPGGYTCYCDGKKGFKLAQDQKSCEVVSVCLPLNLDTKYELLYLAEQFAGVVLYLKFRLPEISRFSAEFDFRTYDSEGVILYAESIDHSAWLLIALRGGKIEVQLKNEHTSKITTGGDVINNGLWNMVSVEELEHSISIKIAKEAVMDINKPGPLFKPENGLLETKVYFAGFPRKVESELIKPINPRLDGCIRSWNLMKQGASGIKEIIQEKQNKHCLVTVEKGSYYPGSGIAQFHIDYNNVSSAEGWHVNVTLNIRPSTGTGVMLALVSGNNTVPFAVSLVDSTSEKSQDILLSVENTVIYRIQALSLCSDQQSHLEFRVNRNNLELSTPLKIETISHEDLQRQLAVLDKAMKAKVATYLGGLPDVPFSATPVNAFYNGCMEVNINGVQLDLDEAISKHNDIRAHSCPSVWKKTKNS
The assay can be described thus: ELISA, coated human Protein S his 1 ug/ml.

B1: ch2D3C6 (antibody, human IgG1, kappa, V domains shown)
VH: DIQLQESGPGLVKPSQSLSLTCSVTGYSITNGYYWNWIRQFPGNKLEWMGYISYDGTNNYNPSLKNRISITRDTSKNQFFLKLNSVTTEDTATYYCARRALWYYAMDYWGQGTSVTVSS
VL: DIVMTQSPASLAVSLGQRATISCKASQSVDYDGESYMNWYQQKPGQPPKLLIYVASNLESGIPARFSGSGSGTDFTLNIHPVEEEDAATYYCQQSDEDPYTFGGGTKLEIKR
notes: Human-mouse chimeric antibody, mouse VH/VL cloned into pTT5_hIgG1.G1m3 / pTT5_hKappa.Km3, made in HEK293; also called ch2D3C6-IgG
Consider B1, for which the values for the EC50 (in assay [1]; in the assay with 鼠GAS6 his蛋白(Sino …)) were 0.19 nM and 1.42 nM, respectively.

B2: ch11B11D12 (antibody, human IgG1, kappa, V domains shown)
VH: QVQLQQSGAELAKPGASVKMSCKASGYTFTRYWIHWVKQRPGQGLEWIGYIIPSTGYTEYSQRFKDKATLTADKSSNTAYMQLSSLTSEDSAVYYCTRYYRYAKYVMDYWGQGTTVTVSS
VL: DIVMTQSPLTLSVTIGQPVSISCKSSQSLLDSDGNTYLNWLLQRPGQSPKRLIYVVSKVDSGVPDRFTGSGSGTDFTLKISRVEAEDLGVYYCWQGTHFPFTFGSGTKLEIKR
notes: Human-mouse chimeric antibody, hIgG1 (G1m3) / human kappa (Km3), made in HEK293; also called ch11B11D12-IgG
For the molecule B2, the concentration for a half-maximal effect (EC50) (as a rule, the concentration that produces a half-maximal response) in assay [1] turned out to be 0.18 nM; with 鼠GAS6 his蛋白(Sino …) it was 0.15 nM.

B3: ch18I16C6 (antibody, human IgG1, kappa, V domains shown)
VH: EVKIEESGGGLVKPGGSLKLSCAASGFTFSSYAMSWFRQTPEKRLEWVASISSGGNSYYPDSVKGRFTISRDNARNILYLQMSSLRSEDTAMYYCSRTPDYWGQGTTVTVSS
VL: DVVMTQSPSSMCASLGERVTITCKASQDINTYLSWFQQKPGKSPKTLIYRANRLVDGVPSRFSGSGSGQDYSLTISSLEYEDMGIYYCLQYDEFPFTFGSGTKLEIKR
notes: Human-mouse chimeric antibody, hIgG1 (G1m3) / human kappa (Km3), made in HEK293; also called ch18I16C6-IgG
As for B3, the results for the EC50 (in assay [1]; in assay [2]; with 鼠GAS6 his蛋白(Sino …)) were 0.11 nM, 0.008 nM and 0.1 nM, respectively.

B4: ch2O18G6 (antibody, human IgG1, kappa, V domains shown)
VH: QVQLQQSGPELVKPGASVKISCKTSGNTFTEYIMHWVKQSHGKSLEWIGGINPKNGGTSYNQKFKGKATLTVDKSSRTAYMELRSLTSEDSAVYYCARVRIPPYVYYAMDYWGQGTTVTVSS
VL: DVVVTQTPLSLPVSLGDQASISCRSSQSIVHSNGNTYLEWYLQKPGQSPKLLIYKVSNRFSGVPDRFSGSGSGTDFTLKISRVEAEDLGVYYCFQGSHVPYTFGGGTKLEIKR
notes: Human-mouse chimeric antibody, hIgG1 (G1m3) / human kappa (Km3), made in HEK293; also called ch2O18G6-IgG
Regarding B4, the EC50 in assay [1] came out at 0.21 nM; in assay [2], 0.025 nM; in the assay with 鼠GAS6 his蛋白(Sino …), 0.22 nM.

B5: ch15G5E5 (antibody, human IgG1, kappa, V domains shown)
VH: EVQLQQSGPELVKPGASVKMSCKASGYTFTDDYMKWVKQSHGKSLEWIGDINPNNGGTIYNQKFKGKAILTVDKSSSTAYMQLNSLTSEDSAVYYCARRGRGSWGQGTTVTVSS
VL: DVLMTQTPLSLPVSLGDQASISCRSSQSIVYSNGNTYLEWYLQKPGQSPKLLIYRVSNRFSGVPDRFSGSGSGTDFTLKISRVEAEDLGIYYCFQGSHVPLTFGAGTKLELKR
notes: Human-mouse chimeric antibody, hIgG1 (G1m3) / human kappa (Km3), made in HEK293; also called ch15G5E5-IgG
As to B5, the EC50 in assay [1] was 0.16 nM; in assay [2] it was 0.2 nM; in the assay with 鼠GAS6 his蛋白(Sino …) it was 4.94 nM.
